Assay results from patent US20170067045A1 (Bicycle, published 2017).
*1 amine or outer side, *2 acyl side, *3 side chain or, on linkers, in order; H or OH if unused. Bridges are numbered along the chain shown (N, C = ends). Where no end group is shown, it is not given here. tris(bromomethyl)mesitylene = scaffold as named in the source, Cc1c(C[*:1])c(C)c(C[*:3])c(C)c1C[*:2]; THME(IAc3) = trishydroxymethylethane trisiodoacetate, CC(COC(=O)C[*:1])(COC(=O)C[*:2])COC(=O)C[*:3]; TBMB = c1c(C[*:1])cc(C[*:3])cc1C[*:2]

Tests used:
[1] = target: kallikrein (UniProt P03952 20-638, limits assumed); test: cell-based or functional assay
[2] = target: T1, MDM2 (res 2-125) (UniProt Q00987 2-125); test: fluorescence anisotropy
T1 construct: range 2-125; Titrant in the fluorescence anisotropy experiments

[3] = target: T1, MDM2 (res 2-125); test: fluorescence anisotropy titration (intrinsic Trp fluorescence), 23 C, PBS, 5 mM DTT
Description: (§1) Titration experiments were run on a Horiba Jobin Yvon fluorimeter equipped with the Hamilton Microlab titrator controlled by laboratory software. The λₑₓ and λₑₘ used were 295 nm and 350 nm, respectively. The slit widths for excitation and emission were 5 nm and 15 nm and the integration time 1 Os was used for each measurement. […] The experiments were performed at 23° C. in PBS, 5 mM DTT. […] Titration data were analyzed with a standard 1:1 binding model by using the quadratic solution to the equilibrium Kd=[A][B]/[AB]. […] The fitting equation contained an extra term to account for linear drift.

[4] = target: T1, MDM2 (res 2-125); test: fluorescence anisotropy titration, excitation 295 nm, 23 C, PBS, 5 mM DTT
Description: as §1

[5] = target: T1, MDM2 (res 2-125); test: fluorescence anisotropy titration, excitation 280 nm, 23 C, PBS, 5 mM DTT

kallikrein, sequence (P03952 20-638 limits assumed): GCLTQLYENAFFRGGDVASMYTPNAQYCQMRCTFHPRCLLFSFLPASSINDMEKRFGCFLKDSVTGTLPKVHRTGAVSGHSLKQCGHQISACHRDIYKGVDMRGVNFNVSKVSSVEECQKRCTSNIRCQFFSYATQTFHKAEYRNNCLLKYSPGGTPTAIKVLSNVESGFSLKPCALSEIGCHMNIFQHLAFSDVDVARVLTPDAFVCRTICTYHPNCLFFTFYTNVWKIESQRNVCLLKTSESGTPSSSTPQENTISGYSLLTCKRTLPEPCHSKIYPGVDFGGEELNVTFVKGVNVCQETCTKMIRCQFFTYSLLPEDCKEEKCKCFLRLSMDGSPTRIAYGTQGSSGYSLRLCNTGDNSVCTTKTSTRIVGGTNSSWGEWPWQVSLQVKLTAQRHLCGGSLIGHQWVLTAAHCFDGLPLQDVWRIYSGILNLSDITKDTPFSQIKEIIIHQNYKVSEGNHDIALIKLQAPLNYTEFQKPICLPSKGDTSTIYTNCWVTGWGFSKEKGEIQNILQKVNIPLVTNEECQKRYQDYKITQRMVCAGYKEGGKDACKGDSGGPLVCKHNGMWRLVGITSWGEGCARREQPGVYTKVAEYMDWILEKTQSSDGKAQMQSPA
T1 sequence (Q00987 2-125 limits assumed): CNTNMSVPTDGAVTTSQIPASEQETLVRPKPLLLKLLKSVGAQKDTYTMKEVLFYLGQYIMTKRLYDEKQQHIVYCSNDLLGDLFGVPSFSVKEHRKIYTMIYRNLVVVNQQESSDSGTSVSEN

B1: PK15-TBMB (peptide)
peptide: ACSDRFRNCPADEALCG
modifications: linker 2-9-16 via TBMB
IC50 of inhibition of kallikrein (Z-Phe-Arg-AMC substrate, fluorescence) [1]: 13 nM

B2: PEP48-3s1 conjugate (TBMB) (peptide)
peptide: SDDCVRFGWTCPTVMCG
modifications: linker 4-11-16 via TBMB
notes: PEP48 derivative with the second loop re-selected
Kd [2]: 27 to 100 nM

B3: PK15 conjugated with tris(bromomethyl)mesitylene (peptide)
peptide: ACSDRFRNCPADEALCG
modifications: linker 2-9-16 via tris(bromomethyl)mesitylene
IC50 of inhibition of kallikrein (Z-Phe-Arg-AMC substrate, fluorescence) [1]: 150 nM

B4: PK15 conjugated with tris(bromoethyl)mesitylene (peptide)
peptide: ACSDRFRNCPADEALCG
modifications: linker 2-9-16 via tris(bromoethyl)mesitylene
IC50 of inhibition of kallikrein (Z-Phe-Arg-AMC substrate, fluorescence) [1]: ~400 nM

B5: oxidized PK15-TBMB (sulphoxides, +3 oxygen atoms) (peptide)
peptide: ACSDRFRNCPADEALCG
modifications: linker 2-9-16 via TBMB; also: thioether links to TBMB oxidised to sulphoxides (stereoisomer mixture)
IC50 of inhibition of kallikrein (Z-Phe-Arg-AMC substrate, fluorescence) [1]: ~2400 nM

B6: PEP10 synthetic peptide conjugated with TBMB (peptide)
peptide: H-SCELWNPKCRLSPFECKG-OH
modifications: linker 2-9-16 via TBMB
notes: The anisotropy paragraph says only 'peptides 10, 48'; also called peptide 10
Kd [3]: 250 to 750 nM
Kd [4]: 267 nM

B7: PEP48 synthetic peptide conjugated with TBMB (peptide)
peptide: H-SCVRFGWTCDNSWHGCKG-OH
modifications: linker 2-9-16 via TBMB
notes: The anisotropy paragraph says only 'peptides 10, 48'; also called peptide 48
Kd [3]: 250 to 750 nM
Kd [4]: 567 nM
Kd [5]: 760 nM

B8: PK15 with central cysteine altered to methionine, TBMB conjugate, second of two HPLC products (peptide)
peptide: ACSDRFRNMPADEALCG
modifications: both cysteines and the single methionine conjugated to TBMB
IC50 of inhibition of kallikrein activity [1]: > 10000 nM

B9: PEP48-3s1 conjugated with THME(IAc3), HPLC peak / stereoisomer with affinity 1600 nM (peptide)
peptide: SDDCVRFGWTCPTVMCG
modifications: linker 4-11-16 via THME(IAc3); also: one of two stereoisomers (HPLC peaks), not assigned
notes: The other of two HPLC peaks of identical mass (expected stereoisomers); also called PEP48-3s1-THME(IAc3)
Kd [2]: 1600 nM

B10: PEP48-3s1 conjugated with THME(IAc3), HPLC peak / stereoisomer with affinity 640 nM (peptide)
peptide: SDDCVRFGWTCPTVMCG
modifications: linker 4-11-16 via THME(IAc3); also: one of two stereoisomers (HPLC peaks), not assigned
notes: One of two HPLC peaks of identical mass (expected stereoisomers); also called PEP48-3s1-THME(IAc3)
Kd [2]: 640 nM

B11: oxidized PK15-TBMB (sulphone) (peptide)
peptide: ACSDRFRNCPADEALCG
modifications: linker 2-9-16 via TBMB; also: thioether links to TBMB oxidised to sulphones
IC50 of inhibition of kallikrein (Z-Phe-Arg-AMC substrate, fluorescence) [1]: 1300 nM

B12: PK15 with central cysteine altered to methionine, TBMB conjugate, first of two HPLC products (peptide)
peptide: ACSDRFRNMPADEALCG
modifications: both cysteines and the single methionine conjugated to TBMB
IC50 of inhibition of kallikrein activity [1]: > 10000 nM
